Assay [1] deals with H1N1 hemagglutinin (Cat No.: Z03181, GenScript), full-length recombinant HA (His-Tag) (influenza A virus H1N1 (strain not stated)). Put plainly: SPR. On the technique in general: In SPR one partner is held on a chip, and binding of the other changes the refractive index at the surface.
Assay [2] has the same target. Kind of assay: MST; fluorescently labelled His-HA (NT647-HA) held constant, peptide in 16 1:1 serial dilutions from 50 µM; assay buffer PBS; 10 min incubation at rt; standard-treated capillaries; high MST power, 10% LED power; Monolith NT.115pico; triplicate.
The target is the same in assay [3]. Kind of assay: SPR. This is another data set of the same source.

B1: peptide 9 (Ac-SLAC-NH2) (peptide)
peptide: Ac-SLAC-NH2
Take B1: the figures for the Kd in assay [1] and in assay [2] were 2570 nM and 0.0058 µM, respectively.

B2: peptide 3 (Ac-AKHS-NH2) (peptide)
peptide: Ac-AKHS-NH2
With B2, the Kd (commonly the concentration at which binding is half-saturated) was determined as 2700 nM in assay [1] and 3.12 µM in assay [2].

B3: peptide 7 (Ac-ALDC-NH2) (peptide)
peptide: Ac-ALDC-NH2
For B3, the Kd in assay [1] was determined as 27.7 nM; in assay [2], 21.2 µM.

B4: peptide 5 (Ac-SKAS-NH2) (peptide)
peptide: Ac-SKAS-NH2
On to B4, for which the Kd in assay [1] is 1030 nM; in assay [2], 7.01 µM.

B5: peptide 8 (Ac-SADC-NH2) (peptide)
peptide: Ac-SADC-NH2
Regarding B5, the results for the Kd in assay [1] and in assay [2] were 2190 nM and 6.38 µM, respectively.

B6: peptide 10 (Ac-SLDA-NH2) (peptide)
peptide: Ac-SLDA-NH2
With B6, the results for the Kd in assay [1] and in assay [2] were 343 nM and 2.69 µM, respectively.

B7: peptide 4 (Ac-SAHS-NH2) (peptide)
peptide: Ac-SAHS-NH2
With B7, the Kd is 3.5 nM in assay [1], 3.57 nM in assay [3] and 0.0082 µM in assay [2].

B8: peptide 6 (Ac-SKHA-NH2) (peptide)
peptide: Ac-SKHA-NH2
Take B8: the Kd worked out at 6750 nM in assay [1] and 11.4 µM in assay [2].

The values above are taken from article PMC8537277 (Pharmaceuticals, 2021).
